Results: US20130236462A1 (Sanofi, published 2013)

T1: recombinant human IL-4 (human, UniProt P05112 25-153)
T1 sequence (looked up): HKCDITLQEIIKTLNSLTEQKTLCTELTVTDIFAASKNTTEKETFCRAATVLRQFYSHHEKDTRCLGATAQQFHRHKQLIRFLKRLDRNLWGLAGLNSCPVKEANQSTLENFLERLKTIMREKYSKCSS


Tests used:
[1] = target: T2, recombinant human IL-13 (human, UniProt P35225 35-146, limits assumed); experiment: SPR Biacore 3000, antibody captured, cytokine in solution
T2 construct: Bought reagent; also called wild type IL-13
From the text: (§1) Surface plasmon resonance technology on a Biacore 3000 (GE Healthcare) was used for detailed kinetic characterisation of purified anibodics. A capture assay using a species specific antibody (e.g. human-Fc specific MAB 1302, Chemicon) for capture and orientation of the investigated antibodies was used. The capture antibody was immobilized via primary amine groups (10000 RU) on a research grade CM5 chip (GE Life Sciences) using standard procedures. The analysed antibody was captured with an adjusted RU value that would result in maximal analyte binding of 30 RU at a flow rate of 10 μl/min. Binding kinetics were measured against recombinant human IL-4 and IL-13 over a concentration range between 0 to 50 nM in HBS EP (10 mM HEPES pH 7.4, 150 mM NaCl, 3 mM EDTA, 0.005% Surfactant P20) at a flow rate of 30 μl/min. Chip surfaces were regenerated with 10 mM glycine pH2.5. Kinetic parameters were analysed and calculated in the BIAevaluation program package using a flow cell without captured antibody as reference. To investigate additive binding of both antigens, a wizard-driven co-inject method has been applied in which one antigen was injected immediately followed by the antigen mix of IL-13/IL-4.

[2] = target: T2, recombinant human IL-13; experiment: cell-based or functional assay
[3] = target: T1, recombinant human IL-4; experiment: cell-based or functional assay
[4] = target: T1, recombinant human IL-4; experiment: SPR Biacore 3000, antibody captured, cytokine in solution
From the text: as §1

T2 sequence (P35225 35-146 limits assumed): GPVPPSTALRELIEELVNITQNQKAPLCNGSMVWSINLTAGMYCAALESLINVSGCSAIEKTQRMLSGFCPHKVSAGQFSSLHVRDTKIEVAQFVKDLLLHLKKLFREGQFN

Binder	Kd [1]	koff [1]	kon [1]	IC50, inhibition of IL-13 induced TF-1 cell proliferation [2]	IC50, inhibition of IL-4 induced TF-1 cell proliferation [3]	Kd [4]	koff [4]	kon [4]
huB-B13 VL1 × VH1 (antibody, V domains shown, Expressed as a whole antibody, purified on Protein A; also called humanized B-B13 VL1xVH1) VH: EVQLKESGPGLVAPGGSLSITCTVSGFSLTDSSINWVRQPPGKGLEWLGMIWGDGRIDYNDALKSRLSISKDNSKSQVFLEMNSLRTDDTATYYCARDGYFPYAMDFWGQGTSVTVSS VL: DIVLTQSPASLAVSLGQRATISCRASESVDSYGNSYMHWYQQKAGQPPKLLIYLASNLESGVPARFSGSGSRTDFTLTIDPVQAEDAATYYCQQNNEDPRTFGGGTKLEIK	0.396 nM	0.000691 s⁻¹	1.74e+06 M⁻¹ s⁻¹	15.7 nM				
Hu8D4-8 VL1 × VH2 (antibody, V domains shown, Expressed as a whole antibody, purified on Protein A; also called humanized 8D4-8 VL1xVH2) VH: QVQLQQSGPELVKPGASVKISCKASGYSFTSYWIHWIKQRPGQGLEWIGMIDASDGETRLNQRFQGRATLTVDESTSTAYMQLRSPTSEDSAVYYCTRLKEYGNYDSFYFDVWGAGTLVTVSS VL: DIQMTQSPASLSVSVGDTITLTCHASQNIDVWLSWFQQKPGNIPKLLIYKASNLHTGVPSRFSGSGSGTGFTLTISSLQPEDIATYYCQQAHSYPFTFGGGTKLEIKR					0.135 nM	0.0139 nM	0.000348 s⁻¹	2.57e+07 M⁻¹ s⁻¹
chimeric anti-IL-4 clone 8D4-8 monoclonal antibody (antibody, V domains shown, Murine variable domains fused to IGHG1 and IGKC; also called ch8D4-8 WT; chimeric 8D4-8) VH: QVQLQQSGPQLVRPGTSVKISCKASGYSFTSYWIHWIKQRPGQGLEWIGMIDPSDGETRLNQRFKDRATLTVDRSSSTAYMQLRSPTSEDSALYYCTRLKEYGNYDSFYFDVWGAGTTVTVSS VL: DIQMNQSPASLSVSLGDTITLTCHASQNIDVWLSWFQQSPGNIPKLLIYKASNLHTGVPSRFSGSGSGTGFTLTISSLQPEDIATYYCQQAHSYPFTFGGGTKLEIK					0.084 nM	0.00783 nM	0.000195 s⁻¹	2.49e+07 M⁻¹ s⁻¹

Further lines, results first:

Kd [1]	koff [1]	kon [1]	IC50, inhibition of IL-13 induced TF-1 cell proliferation [2]	IC50, inhibition of IL-4 induced TF-1 cell proliferation [3]	Kd [4]	koff [4]	kon [4]	Binder
0.189 nM	0.000405 s⁻¹	2.14e+06 M⁻¹ s⁻¹						huB-B13 VL3 × VH3 (antibody, V domains shown, Expressed as a whole antibody, purified on Protein A; also called humanized B-B13 VL3xVH3) VH: EVQLKESGPGLVAPGGSLSITCTVSGFSLTDSSINWVRQPPGKGLEWLGMIWGDGRIDYADALKSRLSISKDSSKSQVFLEMTSLRTDDTATYYCARDGRFPYAMKFWGQGTSVTVSS VL: DIVLTQSPASLAVSLGQRATISCRASESVDSYGQSYMHWYQQKAGQPPKLLIYLASNLESGVPARFSGSGSRTDFTLTIDPVQAEDAATYYCQQNAEDSRTFGGGTKLEIK
0.205 nM	0.000395 s⁻¹	1.93e+06 M⁻¹ s⁻¹						huB-B13 VL1 × VH3 (antibody, V domains shown, Expressed as a whole antibody, purified on Protein A; also called humanized B-B13 VL1xVH3) VH: EVQLKESGPGLVAPGGSLSITCTVSGFSLTDSSINWVRQPPGKGLEWLGMIWGDGRIDYADALKSRLSISKDSSKSQVFLEMTSLRTDDTATYYCARDGRFPYAMKFWGQGTSVTVSS VL: DIVLTQSPASLAVSLGQRATISCRASESVDSYGNSYMHWYQQKAGQPPKLLIYLASNLESGVPARFSGSGSRTDFTLTIDPVQAEDAATYYCQQNNEDPRTFGGGTKLEIK
0.172 nM	0.000333 s⁻¹	1.93e+06 M⁻¹ s⁻¹	5.2 nM					huB-B13 VL3 × VH1 (antibody, V domains shown, Expressed as a whole antibody, purified on Protein A; also called humanized B-B13 VL3xVH1) VH: EVQLKESGPGLVAPGGSLSITCTVSGFSLTDSSINWVRQPPGKGLEWLGMIWGDGRIDYNDALKSRLSISKDNSKSQVFLEMNSLRTDDTATYYCARDGYFPYAMDFWGQGTSVTVSS VL: DIVLTQSPASLAVSLGQRATISCRASESVDSYGQSYMHWYQQKAGQPPKLLIYLASNLESGVPARFSGSGSRTDFTLTIDPVQAEDAATYYCQQNAEDSRTFGGGTKLEIK
				0.097 nM	0.0377 nM	0.000217 s⁻¹	5.57e+06 M⁻¹ s⁻¹	mouse anti-IL-4 monoclonal antibody clone 8D4-8 (antibody, V domains shown, Bought mouse monoclonal antibody (Biozol / BioLegend); also called murine 8D4-8) VH: QVQLQQSGPQLVRPGTSVKISCKASGYSFTSYWIHWIKQRPGQGLEWIGMIDPSDGETRLNQRFKDRATLTVDRSSSTAYMQLRSPTSEDSALYYCTRLKEYGNYDSFYFDVWGAGTTVTVSS VL: DIQMNQSPASLSVSLGDTITLTCHASQNIDVWLSWFQQSPGNIPKLLIYKASNLHTGVPSRFSGSGSGTGFTLTISSLQPEDIATYYCQQAHSYPFTFGGGTKLEIKR
